According to patent US20240067734A1:

Target: di muNKG2D ECD Fc avi (murine)
Test: ELISA; biotinylated antigen on streptavidin plate

Chain of di muNKG2D ECD Fc avi (murine) (chain, as listed by the source limits assumed): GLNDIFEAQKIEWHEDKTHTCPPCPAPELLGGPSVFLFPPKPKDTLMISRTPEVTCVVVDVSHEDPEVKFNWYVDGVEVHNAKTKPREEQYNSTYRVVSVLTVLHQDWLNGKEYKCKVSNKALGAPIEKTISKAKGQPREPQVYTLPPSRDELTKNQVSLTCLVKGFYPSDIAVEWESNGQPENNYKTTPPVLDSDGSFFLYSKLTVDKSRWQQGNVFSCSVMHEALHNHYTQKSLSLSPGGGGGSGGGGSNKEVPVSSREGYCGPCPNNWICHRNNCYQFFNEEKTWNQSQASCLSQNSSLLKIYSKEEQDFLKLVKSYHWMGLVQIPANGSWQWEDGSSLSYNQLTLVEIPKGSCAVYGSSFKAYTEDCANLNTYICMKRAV

OD max: 0.2 OD
B1: anti-NKG2D antibody clone 001 (antibody, V domains shown)
VH: QQLEQSGGGLVTPGGSLKLCCIGSGFDFNTYWMTWVRQAPGKGLEWIGCIHGGSSGSTYYASWVNGRFTLSRDIDQSTGCLQVNSLTAADTAMYYCARPGYRSWSKTFDLWGQGTMVTVSS
VL: DIQMTQSPSSLSASVGDRVTITCRASQDISESLNWYQQKPGKAPKLLIYAASSLQSGVPSRFSGSGSGTDYTLTISSLQPEDFATYYCQQANSFPLTFGGGTKVEIK
